From paper PMC7970798 (Computational and Structural Biotechnology Journal, 2021)
Read-outs that look alike come from different tables or passages of the source. No end group written: not given here. *: point of attachment. Biotin = O=C1N[C@H]2[C@H](CS[C@H]2CCCCC(=O)*)N1

B1: CRB1 C-terminal tetradecapeptide (endogenous PALS1 ligand) (peptide)
peptide: Biotin-MWNLMPPPAMERLI

Columns and labels:
Assay in all cases: SPR
[1] = biological target: T1, PDZ domain of wild type human PALS1 protein (human, UniProt Q8N3R9 256-336)
T1 sequence: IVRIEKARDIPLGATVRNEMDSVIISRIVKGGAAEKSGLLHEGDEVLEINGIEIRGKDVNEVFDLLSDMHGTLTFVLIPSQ

[2] = biological target: T1, PDZ domain of wild type human PALS1 …; remark: listed apart in the source
[3] = biological target: B1

Binder	Kd [2] [µM]	further results
B1	–	Kd [1]: 5.11 µM
KNLNSSEGVPDLLV [SARS-CoV-1 envelope E protein C-terminal tetradecapeptide]	> 500	–
Biotin-VKNLNSSRVPDLLV [SARS-CoV-2 envelope E protein C-terminal tetradecapeptide]	63	–
[change] variant of the PDZ domain of PALS1 (domain or fragment) IVRIEKARDIPLGATVRNEMDSVIISRIVKGGAAEKSGLLHEGDEVLEINGIEIRGKDVNEVWDLLSDMHGTLTFVLIPSQ	–	Kd [3]: 18 µM
